The data set has as its target His6-PfSSB (Plasmodium falciparum 3D7, UniProt Q8I415 77-284). Nature of the data set: EMSA.

B1: 70-mer ssDNA oligonucleotide (ssDNA)
DNA: CTGCCACACACCACCAAAGCTAACTGACAGGAGAATCCAGATGGATCATTTAAAGCATTTGCAACAATTG
B1: the binding result was “binds”.

Values taken from article PMC2978346.
